Experimental data published in PMC10245933.
Like-named read-outs stand apart in the source and are kept apart here.

Legend:
[1] = target: NOPLight (human (NOPR part)); experiment: sensor fluorescence kinetics
[2] = target: NOPLight (human (NOPR part)); experiment: other fluorescence titration
[3] = target: NOPLight (human (NOPR part)); experiment: other fluorescence titration; remark: listed apart in the source
[4] = target: NOPLight (human (NOPR part)); experiment: other fluorescence titration; remark: listed apart in the source
[5] = target: NOPLight (human (NOPR part)); experiment: sensor fluorescence in brain slices

Substance | τON (time constant of signal activation) [1] | EC50 [2] | ΔF/F0 upon N/OFQ [2] | ΔF/F0 upon N/OFQ [3] | EC50 [4] | F/F0 upon CNO-evoked release [5]
Nociceptin/orphanin-FQ peptide (from UniProt Q13519 130-146) | 595 ms | 28.6 nM | 388% | 378% | 42.8 nM | 
endogenous N/OFQ released from PNOC neurons (peptide) |  |  |  |  |  | 1.6%
